Assay results taken from US20050282216A1.
pKd: −log10 of the molar value.

How the values were obtained:
human IL-13Rα (human) [1] = molecular target: human IL-13Rα (human) (UniProt P78552); experiment: radioligand binding on CHO cells; the basis of this value is not explained
human IL-13Rβ (human) [2] = molecular target: human IL-13Rβ (human) (UniProt Q14627); experiment: Scatchard analysis of saturation binding of 125I-labelled IL-13 on Caki-1 cells
[3] = molecular target: hIL-13Rα and hIL-4R coexpressed on cells (reconstituted high-affinity receptor) (human) (UniProt P24394); experiment: Scatchard analysis on CHO-hIL4R cells transfected with hIL-13Rα cDNA, high-affinity site
human IL-13Rα (human) [4] = molecular target: human IL-13Rα (human) (UniProt P78552); experiment: Scatchard analysis on CHO-hIL4R cells transfected with hIL-13Rα cDNA, low-affinity site (nonassociated IL-13Rα chains)
human IL-13Rβ (human) [5] = molecular target: human IL-13Rβ (human) (UniProt Q14627); experiment: Scatchard analysis of saturation binding on COS-7 cells transfected with IL-13Rβ cDNA
human IL-13Rα (human) [6] = molecular target: human IL-13Rα (human) (UniProt P78552); experiment: Scatchard analysis of saturation binding on CHO cells transfected with IL-13Rα cDNA

Chain of UniProt P78552 (P78552 22-427 limits assumed, form in doubt): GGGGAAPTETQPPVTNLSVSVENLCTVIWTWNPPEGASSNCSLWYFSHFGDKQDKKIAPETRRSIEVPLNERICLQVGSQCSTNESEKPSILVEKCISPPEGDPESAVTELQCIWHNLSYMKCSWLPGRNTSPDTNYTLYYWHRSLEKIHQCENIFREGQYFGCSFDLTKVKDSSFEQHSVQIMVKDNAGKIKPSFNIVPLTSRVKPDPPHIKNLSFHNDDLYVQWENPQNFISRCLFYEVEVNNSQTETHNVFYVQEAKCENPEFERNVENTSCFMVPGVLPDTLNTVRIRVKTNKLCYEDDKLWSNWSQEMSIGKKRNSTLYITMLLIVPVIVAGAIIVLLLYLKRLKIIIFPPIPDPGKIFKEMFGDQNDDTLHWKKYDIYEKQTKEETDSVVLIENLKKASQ
Chain of UniProt Q14627 (Q14627 27-380 limits assumed, form in doubt): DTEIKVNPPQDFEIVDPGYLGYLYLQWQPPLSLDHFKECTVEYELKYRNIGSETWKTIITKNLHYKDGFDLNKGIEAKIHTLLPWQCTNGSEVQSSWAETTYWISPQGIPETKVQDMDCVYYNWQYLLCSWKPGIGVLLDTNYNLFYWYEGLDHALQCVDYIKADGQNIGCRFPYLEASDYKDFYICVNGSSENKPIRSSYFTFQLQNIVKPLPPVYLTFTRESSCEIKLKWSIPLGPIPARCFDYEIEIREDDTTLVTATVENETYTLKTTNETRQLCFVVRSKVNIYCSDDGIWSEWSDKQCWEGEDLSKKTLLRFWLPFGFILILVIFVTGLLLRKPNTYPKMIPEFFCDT

“[125I][Phe43]-IL-13-GlyTyrGlyTyr (from UniProt P35225 35-146) (ligand)” gave a pKd (human IL-13Rα (human) [1]) of 8.12, a pKd (human IL-13Rβ (human) [2]) of 9.35 and a pKd [3] of 10.64. The pKd (human IL-13Rα (human) [4]) was 8.38, the pKd (human IL-13Rβ (human) [5]) was 9.60 and the pKd (human IL-13Rα (human) [6]) was 8.35.
